Data: patent publication US10047345B2, “Culturing of mesenchymal stem cells with FGF4 and nicotinamide” (Gamida-Cell Ltd., priority 2012, dated 2018)
Entries after “also recorded” stand apart in the source; their conditions may differ.

Legend:
MSCs = conditions: cited from earlier work
[1] = system: umbilical cord-derived CD133+ hematopoietic stem cells; assay: Differentiation and proliferation of ex-vivo cultured hematopoietic stem cells (FACS surface markers); format: cell-based
Experimental: Umbilical cord-derived hematopoietic stem cells were isolated using CD133 microbeads and CliniMACS® separator (Miltenyi, Inc. Auburn, Calif.), and cultured for 3 weeks in MEMα supplemented with 50 ng/ml TPO, IL6, SCF, Flt3, fetal bovine serum, ±2.5 or 5 mM nicotinamide, and/or 10, 50 or 200 ng/ml FGF4. After 3 weeks in culture the cells were stained for surface markers (CD38, CD133, CD33, CD19) and the cell populations determined by FACS analysis (see below). Results are expressed as percentage of total population assayed.
(§1) At different time points the cells were detached with 0.25% trypsin-EDTA. The cells were washed with a PBS solution containing 1% BSA, and stained (at 4° C. for 30 min) with either fluorescein isothiocyanate (FITC) or phycoerythrin (PE)-conjugated antibodies: 105 PE, 105 FITC (Serotec, Raleigh, N.C.), 45 FITC, 14 FITC, HLA-DR FITC, 106 PE, 31 PE (BD, Franklin Lakes N.J.), 34 PE (Dako, Glostrup, Denmark), 73 PE, HLA class1 PE, 49b PE (Pharmingen, San Diego, Calif.), 29 PE, 44 PE, 54 FITC, 59 PE, 90 PE (BioLegend, San Diego, Calif.). CD133—(AC141) PE (Miltenyi, Auburn, Calif.), CD38 FITC (Dako, Glostrup, Denmark), CD19 FITC (BD Biosciences, Franklin Lakes N.J.), CD33 FITC (BD Bioscience, Franklin Lakes N.J.).
(§2) The cells were then washed in the above buffer and analyzed using a FACScalibur® flow cytometer (Becton Dickinson, Franklin Lakes N.J.). The cells were passed at a rate of up to 1000 cells/second, using a 488 nm argon laser beam as the light source for excitation. Emission of 10000 cells was measured using logarithmic amplification, and analyzed using the CellQuest software (Becton Dickinson). Cells stained with FITC- and PE-conjugated isotype control antibodies were used to determine background fluorescence.
Umbilical cord-derived CD133+ hematopoietic stem cells were isolated and cultured for 3 weeks in medium supplemented with early-acting growth factors and fetal bovine serum, nicotinamide and/or FGF4. After 3 weeks in culture the cells were stained for surface markers (CD38, CD133, CD19) and the cell populations determined by FACS analysis. Cell proliferation was assessed by counting total cells at three weeks.

mesenchymal stem cells [2] = assay: Cell size of cultured MSCs (Cedex cell counter); format: cell-based, human; conditions: between days 10-32 of culture
Experimental: Cell size was measured using Cedex Automated Cell Counter (Innovatis). The cells were diluted 1:2 in Trypan Blue (Sigma) and cell size was measured automatically under microscope.
(§3) Mesenchymal stem cells were selected and cultured in the presence of particular growth factors (basic fibroblast growth factor—bFGF, heparin binding epidermal growth factor—HB-EGF, fibroblast growth factor 4—FGF-4 and platelet derived growth factor, homodimer, subunit B, PDGF-BB) in the presence and absence of nicotinamide for three or four passages and the number and size of the cells was calculated.

mesenchymal stem cells [3] = assay: Percent of MSC (CD105+CD45-) by FACS; format: cell-based, human; conditions: NAM 5 mM, FGF4 50 ng/ml, PDGF-BB 50 ng/ml
Experimental: as §1, with “CD133—(AC141) PE (Miltenyi, Auburn, Calif.), CD38 FITC (Dako, Glostrup, Denmark), CD19 FITC (BD Biosciences, Franklin Lakes N.J.), CD33 FITC (BD Bioscience, Franklin Lakes N.J.).” left out
as §2, with “The cells were passed at a rate of up to 1000 cells/second, using a 488 nm argon laser beam as the light source for excitation.” left out
as §3

Q: Which “increase in the number of colony-forming units of MSCs” value (MSCs; Tamama et al. 2010) does the source give for EGF: Epidermal growth factor here?
A: Its value is 25%.

B1: FGF4: Fibroblast growth factor 4, the FGF4 gene product, a 176 AA long protein (protein, UniProt P08620 31-206, looked up)
Fibroblast growth factor 4: APTAPNGTLEAELERRWESLVALSLARLPVAAQPKEAAVQSGAGDYLLGIKRLRRLYCNVGIGFHLQALPDGRIGGAHADTRDSLLELSPVERGVVSIFGVASRFFVAMSSKGKLYGSPFFTDECTFKEILLPNNYNAYESYKYPGMFIALSKNGKTKKGNRVSPTMKVTHFLPRL
Q: For B1, which “degree of differentiation of hematopoietic progenitor cells (CD38 and CD133-expressing fraction)” value ([1]; 3 weeks culture, nicotinamide 2.5 or 5 mM, FGF4 10 to 200 ng/ml) is on record?
A: Its value is “without any effect on the degree of differentiation; also recorded: neither improved nor reduced”.

Q: And the “total cell proliferation in hematopoietic cultures” value ([1]; 3 weeks, FGF4 with or without nicotinamide, results not shown)?
A: Its value is “without any discernible effect”.

Q: What about the “fraction of undifferentiated early progenitors (CD38-CD133+)” value ([1]; 3 weeks, FIG. 35) of the same molecule?
A: Its value is “absence of any significant effect”.

Q: And the “differentiation (CD38+ cells)” value ([1]; 3 weeks, FIG. 36)?
A: Its value is “absence of any significant effect”.

Q: What about the “myeloid lineage differentiation (CD33+ cells)” value ([1]; 3 weeks, FIG. 37) of the same molecule?
A: The value was “moderate enhancement”.

Q: What about the “lymphoid lineage differentiation (CD19+ cells)” value ([1]; 3 weeks, FIG. 38) of the same molecule?
A: Its value is “absence of any significant effect”.

Q: And the “abundance of committed myeloid or lymphoid cells (CD33, CD19)” value ([1]; three week cultures)?
A: Its value is “without any effect”.

Q: What about the “cell diameter of cultured MSCs” value (mesenchymal stem cells [2]) of the same molecule?
A: The value was “greater than 20 μm”.

B2: PDGF-BB: platelet derived growth factor, homodimer, subunit B (protein, UniProt P01127 82-190, looked up)
Platelet-derived growth …: SLGSLTIAEPAMIAECKTRTEVFEISRRLIDRTNANFLVWPPCVEVQRCSGCCNNRNVQCRPTQVQLRPVQVRKIEIVRKKPIFKKATVTLEDHLACKCETVAAARPVT
Q: For B2, which “fraction of MSC (CD105+CD45-) versus cells other than MSCs in the culture” value (mesenchymal stem cells [3]) is on record?
A: Its value is “contaminated with a higher fraction of cells other than MSCs”.

B3: BMP-3: member of the transforming growth factor beta family (protein, UniProt P12645 363-472, looked up)
Bone morphogenetic protein 3: QWIEPRNCARRYLKVDFADIGWSEWIISPKSFDAYYCSGACQFPMPKSLKPSNHATIQSIVRAVGVVPGIPEPCCVPEKMSSLSILFFDENKNVVLKVYPNMTVESCACR
Q: For B3, which “increase of MSC proliferation” value (MSCs; Stewart et al. 2010) is on record?
A: Its value is “threefold”.
